Results from EP4588489A1, “LINKER FOR ANTIBODY-DRUG CONJUGATE AND USE THEREOF” (priority 2022, dated 2024).
Where a chain is given by its changes, count along the chain named. Read-outs that look alike come from different tables or passages of the source.

Assays:
Test in all cases: cell-based or functional assay
BCMA [1] = biological target: T1, BCMA (UniProt Q02223 1-184, limits assumed)
T1 sequence (looked up): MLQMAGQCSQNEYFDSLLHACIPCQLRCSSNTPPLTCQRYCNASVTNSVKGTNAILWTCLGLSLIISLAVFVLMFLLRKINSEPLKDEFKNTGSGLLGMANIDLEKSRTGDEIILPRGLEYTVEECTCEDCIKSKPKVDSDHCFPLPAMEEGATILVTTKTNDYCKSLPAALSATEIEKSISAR

BCMA [2] = biological target: T1, BCMA; remark: listed apart in the source
TROP2 [3] = biological target: T2, TROP2 (UniProt P09758 27-323, limits assumed)
T2 sequence (looked up): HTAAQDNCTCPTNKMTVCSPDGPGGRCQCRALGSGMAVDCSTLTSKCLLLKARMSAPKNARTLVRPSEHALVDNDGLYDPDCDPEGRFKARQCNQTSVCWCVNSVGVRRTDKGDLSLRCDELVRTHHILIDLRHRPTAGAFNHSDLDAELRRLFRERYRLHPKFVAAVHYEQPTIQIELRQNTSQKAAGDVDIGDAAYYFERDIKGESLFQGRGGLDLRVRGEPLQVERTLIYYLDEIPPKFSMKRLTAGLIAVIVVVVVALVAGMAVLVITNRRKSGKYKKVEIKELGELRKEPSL

TROP2 [4] = biological target: T2, TROP2; remark: listed apart in the source
TROP2 [5] = biological target: T2, TROP2; remark: listed apart in the source
TROP2 [6] = biological target: T2, TROP2; remark: listed apart in the source

B1: anti-BCMA-005-Hu178-CPD-D4 (antibody, human IgG1, kappa, V domains shown)
VH: EVQLVESGGGLVKPGGSLRLSCAASGFTFSNFDMAWVRQAPGKGLEWVASIVTRGDDTYYRDSVRGRFTISRDNAKNTQYLQMNSLRAEDTAVYYCARHDYGGPSGWFGYWGQGTLVTVSS
VL: DIQMTQSPSSLSASVGDRVTITCRASQGFSNNLNWYQQKPGKTPKPLIYYTSNLHSGVPSRFSGSGSGTDYSLTISSLQPEDFATYYCQQDASFPPTFGQGTKLEIKR
modifications: linker-drug CPD1 on cysteines of reduced interchain disulfides; HIC-DAR 4.24
For B1, the “EC50(nM), inhibition of MM.1S cell proliferation” value (BCMA [1]) was 12.2 nM.

B2: anti-BCMA-005-Hu178-OMeMMAE-D4 (antibody, human IgG1, kappa, V domains shown)
VH: B1 VH
VL: B1 VL
modifications: Linker-MMAE derivative 2 on cysteines of reduced interchain disulfides; HIC-DAR 3.79
B2 was tested, and the “EC50(nM), inhibition of MM.1S cell proliferation” value (BCMA [2]) was 2.42 nM and the “Relative activity (%), inhibition of MM.1S cell proliferation” value (BCMA [2]) was 77.1%.

B3: anti-BCMA-005-Hu178-glucoseMMAE-NC-D4 (antibody, human IgG1, kappa, V domains shown)
VH: B1 VH
VL: B1 VL
modifications: Linker-MMAE derivative 1 on cysteines of reduced interchain disulfides; HIC-DAR 3.73
In the case of B3, the “EC50(nM), inhibition of MM.1S cell proliferation” value (BCMA [2]) is reported as 2.15 nM and the “Relative activity (%), inhibition of MM.1S cell proliferation” value (BCMA [2]) is reported as 86.8%.

B4: anti-BCMA-005-Hu178-vcMMAF-D4 (antibody, human IgG1, kappa, V domains shown)
VH: B1 VH
VL: B1 VL
modifications: vc-MMAF on cysteines of reduced interchain disulfides; HIC-DAR 3.86
B4 was tested, and the “EC50(nM), inhibition of MM.1S cell proliferation” value (BCMA [2]) was 1.12 nM and the “Relative activity (%), inhibition of MM.1S cell proliferation” value (BCMA [2]) was 166%.

B5: anti-BCMA-005-Hu178-vcMMAE-D4 (antibody, human IgG1, kappa, V domains shown)
VH: B1 VH
VL: B1 VL
modifications: vc-MMAE on cysteines of reduced interchain disulfides; HIC-DAR 3.78
For B5, the “EC50(nM), inhibition of MM.1S cell proliferation” value (BCMA [1]) was 2.3 nM, the “EC50(nM), inhibition of MM.1S cell proliferation” value (BCMA [2]) was 1.87 nM and the “Relative activity (%), inhibition of MM.1S cell proliferation” value (BCMA [2]) was 100%.

B6: anti-BCMA-005-Hu178-CPD-D8 (antibody, human IgG1, kappa, V domains shown)
VH: B1 VH
VL: B1 VL
modifications: linker-drug CPD1 on cysteines of reduced interchain disulfides; HIC-DAR 7.73
With B6 the “EC50(nM), inhibition of MM.1S cell proliferation” value (BCMA [1]) was 4.56 nM.

B7: ADC01 (Datopotamab conjugated to GGFG-Dxd) (antibody, human IgG1, kappa, V domains shown)
VH: QVQLVQSGAEVKKPGASVKVSCKASGYTFTTAGMQWVRQAPGQGLEWMGWINTHSGVPKYAEDFKGRVTISADTSTSTAYLQLSSLKSEDTAVYYCARSGFGSSYWYFDVWGQGTLVTVSS
VL: DIQMTQSPSSLSASVGDRVTITCKASQDVSTAVAWYQQKPGKAPKLLIYSASYRYTGVPSRFSGSGSGTDFTLTISSLQPEDFAVYYCQQHYITPLTFGQGTKLEIKR
modifications: linker-drug GGFG-Dxd on cysteines of reduced interchain disulfides; average DAR 3.73
In the case of B7, the “A431 IC50/µg/mL (in vitro cell viability assay)” value (from here on “A431 IC50/µg/mL”) (TROP2 [3]) is reported as 0.11 µg/mL.

B8: hRS7-CPD4-NC-D4 (antibody, human IgG1, kappa, V domains shown)
VH: QVQLQQSGSELKKPGASVKVSCKASGYTFTNYGMNWVKQAPGQGLKWMGWINTYTGEPTYTDDFKGRFAFSLDTSVSTAYLQISSLKADDTAVYFCARGGFGSSYWYFDVWGQGSLVTVSS
VL: B7 VL with M4L, T20S, T31I, S60D, Q100A, L104V
modifications: linker-drug CPD4 on cysteines of reduced interchain disulfides; label D4
In the case of B8, the “EC50(nM), inhibition of BxPC-3 cell proliferation” value (TROP2 [4]) is reported as 0.424 nM and the “Relative activity (%), inhibition of BxPC-3 cell proliferation” value (TROP2 [4]) is reported as 89.6%.

B9: hRS7-CPT004-D4 (antibody, human IgG1, kappa, V domains shown)
VH: B8 VH
VL: B7 VL with M4L, T20S, T31I, S60D, Q100A, L104V
modifications: linker-drug CPT004 on cysteines of reduced interchain disulfides; label D4
In the case of B9, the “EC50(nM), inhibition of BxPC-3 cell proliferation” value (TROP2 [5]) is reported as 0.144 nM and the “Relative activity (%), inhibition of BxPC-3 cell proliferation” value (TROP2 [5]) is reported as 109%.

B10: ADC02 (hRS7 conjugated to GGFG-Dxd) (antibody, human IgG1, kappa, V domains shown)
VH: B8 VH
VL: B7 VL with M4L, T20S, T31I, S60D, Q100A, L104V
modifications: linker-drug GGFG-Dxd on cysteines of reduced interchain disulfides; average DAR 3.69
For B10, the “A431 IC50/µg/mL” value (TROP2 [3]) was 0.057 µg/mL.

B11: ADC04 (hRS7 conjugated to CPD2) (antibody, human IgG1, kappa, V domains shown)
VH: B8 VH
VL: B7 VL with M4L, T20S, T31I, S60D, Q100A, L104V
modifications: linker-drug CPD2 on cysteines of reduced interchain disulfides; average DAR 3.92
B11 was tested, and the “A431 IC50/µg/mL” value (TROP2 [3]) was 0.048 µg/mL.

B12: hRS7-CPT006-D4 (antibody, human IgG1, kappa, V domains shown)
VH: B8 VH
VL: B7 VL with M4L, T20S, T31I, S60D, Q100A, L104V
modifications: linker-drug CPT006 on cysteines of reduced interchain disulfides; label D4
In the case of B12, the “EC50(nM), inhibition of BxPC-3 cell proliferation” value (TROP2 [5]) is reported as 0.259 nM and the “Relative activity (%), inhibition of BxPC-3 cell proliferation” value (TROP2 [5]) is reported as 60.4%.

B13: hRS7-SN38-D8 (antibody, human IgG1, kappa, V domains shown)
VH: B8 VH
VL: B7 VL with M4L, T20S, T31I, S60D, Q100A, L104V
modifications: comp.5-linked SN38 on cysteines of reduced interchain disulfides; label D8
B13 was tested, and the “EC50(nM), inhibition of BxPC-3 cell proliferation” value (TROP2 [5]) was 6.46 nM.

B14: hRS7-C7-D4 (antibody, human IgG1, kappa, V domains shown)
VH: B8 VH
VL: B7 VL with M4L, T20S, T31I, S60D, Q100A, L104V
modifications: linker-drug comp7 on cysteines of reduced interchain disulfides; DAR 3.56
In the case of B14, the “EC50(nM), inhibition of BxPC-3 cell proliferation” value (TROP2 [6]) is reported as 0.305 nM and the “Relative activity (%), inhibition of BxPC-3 cell proliferation” value (TROP2 [6]) is reported as 103%.
